The values that follow are results of earlier work, collected in article PMC4426885.

The term Kd denotes a measure of binding affinity in units of concentration.

One data set has as its target vinculin (Homo sapiens) (UniProt P18206).
The target of data set [1] is vinculin D1 (Homo sapiens) (UniProt P18206).
The target of data set [2] is vinculin tail (Homo sapiens) (UniProt P18206).

For the substance “alpha-actinin peptide vinculin-binding site (from UniProt P12814)”, the Kd (in the data set with vinculin (Homo sapiens); in data set [1]) was 2 nM throughout.

Consider vinculin head (from UniProt P18206), for which the dissociation constant Kd in data set [2] is < 1 nM.
